Data taken from PMC8109768, “Differential recognition of HIV-stimulated IL-1β and IL-18 secretion through NLR and NAIP signalling in monocyte-derived macrophages” (PLoS Pathogens, 2021).

T1: NAIP (human, UniProt Q13075-1 1-1403)
T1 construct: NAIP, human, endogenous protein; for SPR pulled out of a human cell lysate with an antibody column; also called human NAIP; endogenous NAIP; source: purified from human cell lysate (NHS column with NAIP antibody LS-B455, dialysis, gel filtration); endogenous, human monocyte-derived macrophages (in cells and in lysate)
T1 sequence (looked up): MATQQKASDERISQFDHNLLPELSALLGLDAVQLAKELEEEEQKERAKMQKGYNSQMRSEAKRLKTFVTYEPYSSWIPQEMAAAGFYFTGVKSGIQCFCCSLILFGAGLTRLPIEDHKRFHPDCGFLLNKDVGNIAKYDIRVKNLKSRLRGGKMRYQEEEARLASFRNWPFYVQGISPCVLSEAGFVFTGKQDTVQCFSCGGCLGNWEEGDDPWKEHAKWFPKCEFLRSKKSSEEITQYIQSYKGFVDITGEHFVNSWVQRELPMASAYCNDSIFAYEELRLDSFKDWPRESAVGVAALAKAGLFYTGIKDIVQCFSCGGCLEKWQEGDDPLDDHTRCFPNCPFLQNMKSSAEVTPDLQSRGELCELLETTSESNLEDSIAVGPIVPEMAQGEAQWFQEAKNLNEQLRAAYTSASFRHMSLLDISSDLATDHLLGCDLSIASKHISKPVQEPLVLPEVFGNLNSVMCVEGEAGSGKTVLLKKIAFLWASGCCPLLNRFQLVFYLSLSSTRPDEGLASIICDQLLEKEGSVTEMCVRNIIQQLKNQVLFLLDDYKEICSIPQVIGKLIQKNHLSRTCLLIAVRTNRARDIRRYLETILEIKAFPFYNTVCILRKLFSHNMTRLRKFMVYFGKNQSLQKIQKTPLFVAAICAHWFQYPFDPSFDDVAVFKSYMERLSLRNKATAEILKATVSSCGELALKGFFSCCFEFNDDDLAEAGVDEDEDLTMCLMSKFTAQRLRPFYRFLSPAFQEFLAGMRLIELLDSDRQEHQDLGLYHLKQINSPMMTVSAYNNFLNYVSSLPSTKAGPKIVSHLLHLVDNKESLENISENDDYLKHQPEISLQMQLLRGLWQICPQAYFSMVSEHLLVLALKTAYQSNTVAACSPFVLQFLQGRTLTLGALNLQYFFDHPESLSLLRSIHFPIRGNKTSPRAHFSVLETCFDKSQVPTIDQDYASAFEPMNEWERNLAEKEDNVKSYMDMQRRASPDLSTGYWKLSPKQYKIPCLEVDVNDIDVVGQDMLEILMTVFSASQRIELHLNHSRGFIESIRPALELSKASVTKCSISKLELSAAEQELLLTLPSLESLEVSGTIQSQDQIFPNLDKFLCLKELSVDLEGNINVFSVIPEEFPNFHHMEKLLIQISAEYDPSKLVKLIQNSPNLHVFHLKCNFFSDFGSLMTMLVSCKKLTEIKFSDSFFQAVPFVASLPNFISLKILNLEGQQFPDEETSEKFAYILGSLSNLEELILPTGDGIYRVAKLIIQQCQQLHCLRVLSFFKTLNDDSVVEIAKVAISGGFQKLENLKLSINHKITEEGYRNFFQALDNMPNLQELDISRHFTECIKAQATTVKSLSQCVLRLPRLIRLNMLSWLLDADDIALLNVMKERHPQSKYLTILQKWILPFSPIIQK


Key:
NAIP (human) [1] = molecular target: NAIP (human) (UniProt Q13075); assay: SPR; BIAcore 3000; NAIP amine-coupled to a CM5 chip; gp41 proteins (500ng, 1μg, 5μg, 10μg) injected at flow rate 10 ml/min for 240 s; flagellin as positive control; BIA EVALUATION 3.0
NAIP (human) [2] = molecular target: NAIP (human) (UniProt Q13075); assay: FRET or BRET; FRET between fluorophore-labelled antibodies (Alexa488 donor, Alexa546 acceptor) in monocyte-derived macrophages infected with HIV-1; dequenching of the donor after photobleaching of the acceptor
NAIP = molecular target: T1, NAIP; assay: SPR; BIAcore 3000; NAIP amine-coupled to a CM5 chip; gp41 proteins (500ng, 1μg, 5μg, 10μg) injected at flow rate 10 ml/min for 240 s; flagellin as positive control; BIA EVALUATION 3.0; conditions: both partners purified

Sequence of Flagellin (P06179 2-495): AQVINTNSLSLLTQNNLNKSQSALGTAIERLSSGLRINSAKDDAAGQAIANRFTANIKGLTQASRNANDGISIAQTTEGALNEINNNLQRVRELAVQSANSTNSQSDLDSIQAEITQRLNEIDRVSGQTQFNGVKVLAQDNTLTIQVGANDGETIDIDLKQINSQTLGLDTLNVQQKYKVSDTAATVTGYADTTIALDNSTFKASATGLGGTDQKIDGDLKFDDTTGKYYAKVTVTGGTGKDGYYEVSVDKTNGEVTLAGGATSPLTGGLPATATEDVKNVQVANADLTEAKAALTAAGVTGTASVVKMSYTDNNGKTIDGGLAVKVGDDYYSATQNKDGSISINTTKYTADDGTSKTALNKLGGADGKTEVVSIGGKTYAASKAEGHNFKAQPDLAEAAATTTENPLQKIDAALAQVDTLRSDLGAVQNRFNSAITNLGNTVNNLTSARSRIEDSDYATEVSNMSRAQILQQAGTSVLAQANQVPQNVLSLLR

Molecule | Kd (NAIP (human) [1]) [nM] | koff (NAIP (human) [1]) [s⁻¹] | kon (NAIP (human) [1]) [M⁻¹ s⁻¹] | FRET efficiency E (NAIP (human) [2]) [%] | Kd (NAIP) [nM] | koff (NAIP) [s⁻¹] | kon (NAIP) [M⁻¹ s⁻¹]
Flagellin (from UniProt P06179 1-495) (natural protein) | 0.0247 | 9.81e-07 | 39700 |  |  |  | 
HIV-1 glycoprotein 41 (gp41) (natural protein) |  |  |  | 24 |  |  | 
gp41 CT (from UniProt P04578 707-856) (domain or fragment) | 0.413 | 9.87e-06 | 23900 |  |  |  | 
gp41TM/CT (domain or fragment) FIMIVGGLVGLRIVFAVLSIVNRVRQGYSPLSFQTHLPTPRGPDRPEGIEEEGGERDRDRSIRLVNGSLALIWDDLRSLCLFSYHRLRDLLLIVTRIVELLGRRGWEALKYWWNLLQYWSQELKNSAVSLLNATAIAVAEGTDRVIEVVQGACRAIRHIPRRIRQGLERILL |  |  |  |  | 1.59 | 6.91e-05 | 43500
